Data taken from EP4484444A1 (Centre National de la Recherche Scientifique, dated 2025).

T1: human BMP-1 (bone morphogenetic protein-1) fused to a C-terminal Flag tag (human, UniProt P13497-2 121-730, limits assumed)
T1 construct: Produced in HEK 293-EBNA cells; also called full-length BMP-1; not shown: C-terminal Flag tag
T1 sequence (looked up): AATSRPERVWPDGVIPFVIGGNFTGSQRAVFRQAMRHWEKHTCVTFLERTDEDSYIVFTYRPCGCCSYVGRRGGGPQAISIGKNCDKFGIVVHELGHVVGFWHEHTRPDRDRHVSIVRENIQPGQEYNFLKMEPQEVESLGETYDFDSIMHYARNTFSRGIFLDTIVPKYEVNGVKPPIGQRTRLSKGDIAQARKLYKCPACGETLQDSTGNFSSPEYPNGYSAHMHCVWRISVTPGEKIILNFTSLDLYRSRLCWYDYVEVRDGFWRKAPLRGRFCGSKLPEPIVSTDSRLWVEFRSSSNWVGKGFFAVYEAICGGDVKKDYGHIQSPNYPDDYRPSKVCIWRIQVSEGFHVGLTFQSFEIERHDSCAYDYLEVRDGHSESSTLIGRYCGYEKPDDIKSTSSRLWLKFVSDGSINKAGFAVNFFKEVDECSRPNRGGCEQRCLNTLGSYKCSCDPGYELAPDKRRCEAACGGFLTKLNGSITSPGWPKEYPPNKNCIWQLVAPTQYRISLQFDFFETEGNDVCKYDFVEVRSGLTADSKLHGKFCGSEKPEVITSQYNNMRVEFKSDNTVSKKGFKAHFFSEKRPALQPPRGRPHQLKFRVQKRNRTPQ

B1: NTR domain of PCPE-2 (other, human, UniProt Q9UKZ9 297-415, looked up)
chain: CQQKCRRTGTLEGNYCSSDFVLAGTVITTITRDGSLHATVSIINIYKEGNLAIQQAGKNMSARLTVVCKQCPLLRRGLNYIIMGQVGEDGRGKIMPNSFIMMFKTKNQKLLDALKNKQC
notes: domain: NTR
B2: catalytic domain of BMP-1 (enzyme, UniProt P13497 121-320, looked up)
chain: AATSRPERVWPDGVIPFVIGGNFTGSQRAVFRQAMRHWEKHTCVTFLERTDEDSYIVFTYRPCGCCSYVGRRGGGPQAISIGKNCDKFGIVVHELGHVVGFWHEHTRPDRDRHVSIVRENIQPGQEYNFLKMEPQEVESLGETYDFDSIMHYARNTFSRGIFLDTIVPKYEVNGVKPPIGQRTRLSKGDIAQARKLYKCP
notes: domain: catalytic domain; also called BMP-1cat
B3: C-propeptide III (C-propeptide of procollagen III) (other, UniProt P02461 1222-1466, looked up)
chain: DEPMDFKINTDEIMTSLKSVNGQIESLISPDGSRKNPARNCRDLKFCHPELKSGEYWVDPNQGCKLDAIKVFCNMETGETCISANPLNVPRKHWWTDSSAEKKHVWFGESMDGGFQFSYGNPELPEDVLDVHLAFLRLLSSRASQNITYHCKNSIAYMDQASGNVKKALKLMGSNEGEFKAEGNSKFTYTVLEDGCTKHTGEWSKTVFEYRTRKAVRLPIVDIAPYDIGGPDQEFGVDVGPVCFL
notes: domain: C-propeptide; Described as an uncleavable substrate mimic; Immobilized in SPR (351 RU); also called C-propeptide of collagen III
B4: C1(R44A,F78A,R79D)-C2(L101A) (other)
chain: GPASQSPERPVFTCGGILTGESGFIGSEGFPGVYPPNSKCTWKITVPEGKVVVLNFAFIDLESDNLCRYDFVDVYNGHANGQRIGRFCGTADPGALVSSGNKMMVQMISDANTAGNGFMAMFSAAEPNERGDQYCGGLLDRPSGSFKTPNWPDRDYPAGVTCVWHIVAPKNQLIELKFEKFDVERDNYCRYDYVAVFNGGEVNDARRIGKYCGDSPPAPIVSERNELLIQFLSDASLTADGFIGHYIFRPKKLEHHHHHH
notes: also called C1-C2 with the combination of the 4 mutations
B5: CUB1CUB2* domains of PCPE-2 (other)
chain: GPASQSPERPVFTCGGILTGESGFIGSEGFPGVYPPNSKCTWKITVPEGKVVVLNFRFIDLESDNLCRYDFVDVYNGHANGQRIGRFCGTFRPGALVSSGNKMMVQMISDANTAGNGFMAMFSAAEPNERGDQYCGGLLDRPSGSFKTPNWPDRDYPAGVTCVWHIVAPKNQLIELKFEKFDVERDNYCRYDYVAVFNGGEVNDARRIGKYCGDSPPAPIVSERNELLIQFLSDLSLTADGFIGHYIFRPKLEVLFQ
notes: Two O-glycosylated forms are seen on the gel; also called C1-C2*; the CUB domains of PCPE-2
B6: C2NTR (CUB2 and NTR domains of PCPE-2) (other)
chain: ETGHHHHHHCGGLLDRPSGSFKTPNWPDRDYPAGVTCVWHIVAPKNQLIELKFEKFDVERDNYCRYDYVAVFNGGEVNDARRIGKYCGDSPPAPIVSERNELLIQFLSDLSLTADGFIGHYIFRPKKLPTTTEQPVTTTFPVTTGLKPTVALCQQKCRRTGTLEGNYCSSDFVLAGTVITTITRDGSLHATVSIINIYKEGNLAIQQAGKNMSARLTVVCKQCPLLRRGLNYIIMGQVGEDGRGKIMPNSFIMMFKTKNQKLLDALKNKQC
notes: also called CUB2NTR
B7: recombinant human PCPE-2 (procollagen C-proteinase enhancer 2) fused to a 6 Histidine-tag at the N-terminus (other)
chain: HHHHHHQSPERPVFTCGGILTGESGFIGSEGFPGVYPPNSKCTWKITVPEGKVVVLNFRFIDLESDNLCRYDFVDVYNGHANGQRIGRFCGTFRPGALVSSGNKMMVQMISDANTAGNGFMAMFSAAEPNERGDQYCGGLLDRPSGSFKTPNWPDRDYPAGVTCVWHIVAPKNQLIELKFEKFDVERDNYCRYDYVAVFNGGEVNDARRIGKYCGDSPPAPIVSERNELLIQFLSDLSLTADGFIGHYIFRPKKLPTTTEQPVTTTFPVTTGLKPTVALCQQKCRRTGTLEGNYCSSDFVLAGTVITTITRDGSLHATVSIINIYKEGNLAIQQAGKNMSARLTVVCKQCPLLRRGLNYIIMGQVGEDGRGKIMPNSFIMMFKTKNQKLLDALKNKQC
notes: Produced in HEK 293-T cells from pHLsec; Used as analyte and as immobilized ligand in SPR and in the activity assays; also called full-length PCPE-2

Assays:
[1] = biological target: T1, human BMP-1 (bone morphogenetic …); assay: SPR, analyte over immobilized BMP-1 (974 RU)
[2] = biological target: T2, mini-procollagen III (fused to a N-terminal c-myc tag) (UniProt P02461 1098-1466); assay: SPR, analyte over immobilized mini-procollagen III (435 RU)
T2 construct: also called Mini-III; not shown: N-terminal c-myc tag

[3] = biological target: B7; assay: SPR, analyte over immobilized PCPE-2 (646 RU)
[4] = biological target: B7; assay: SPR, PCPE-2 over immobilized C-propeptide III (351 RU)
[5] = biological target: T1, human BMP-1 (bone morphogenetic …); assay: SPR (Figure 65)
[6] = biological target: T2, mini-procollagen III (fused to a …); assay: SPR, analyte over immobilized mini-procollagen III (437 RU)
[7] = biological target: T2, mini-procollagen III (fused to a …); assay: SPR, CUB1CUB2* 0.78-50 nM over immobilized mini-procollagen III (435 RU)
[8] = biological target: T1, human BMP-1 (bone morphogenetic …); assay: SPR, C1-C2* 1.56-100 nM over immobilized BMP-1 (974 RU), steady-state fit
[9] = biological target: T1, human BMP-1 (bone morphogenetic …); assay: SPR over immobilized BMP-1
[10] = biological target: CPIII-Long (model substrate derived from procollagen III); assay: cell-based or functional assay
[11] = biological target: T1, human BMP-1 (bone morphogenetic …); assay: SPR, PCPE-2 1.56-100 nM over immobilized BMP-1 (974 RU), steady-state fit
[12] = biological target: T1, human BMP-1 (bone morphogenetic …); assay: inhibition of BMP-1 (7 nM) cleavage of the fluorogenic peptide Mca-YVADAPK(Dnp)-OH, Morrison equation (apparent Ki)

Binder: B1
- binding result [1]: no binding (tested: 50 nM)
- binding result [2]: no binding (tested: 200 nM)

Binder: B2
- binding result [3]: no binding (tested: 50 nM)

Binder: B3
- Kd [4]: 45 nM

Binder: B4
- binding result [5]: binds
- binding result [6]: no binding (tested: 50 nM)

Binder: B5
- Kd [7]: ~30 nM
- Kd [8]: 28 nM

Binder: B6
- binding result [9]: binds

Binder: B7
- maximum enhancement factor of CPIII-Long processing by BMP-1 (ratios 0:1 to 6:1) [10]: 1.3 fold
- Kd [11]: 8.4 nM
- Ki [12]: 2.8 nM
